As usually defined, the Kd is the equilibrium constant for the complex coming apart. A lower Kd goes with a tighter complex.

What all share (settings): both partners purified
In one assay the target is His-LC3A (human, UniProt Q9H492 1-121). As to the kind of experiment: ITC; 0.6 mM peptide titrated into 0.06 mM His-LC3/GABARAP protein in 20 steps at 25 °C; 50 mM Tris pH 7.0, 25 mM NaCl; one-site binding model.
For a further assay, the target named is His-LC3B (human, UniProt Q9GZQ8 1-120). The assay is described as above.
The target of the next assay is His-GABARAPL2 (human, UniProt P60520 1-117). The description is as above.
His-GABARAPL2, sequence (P60520 whole entry): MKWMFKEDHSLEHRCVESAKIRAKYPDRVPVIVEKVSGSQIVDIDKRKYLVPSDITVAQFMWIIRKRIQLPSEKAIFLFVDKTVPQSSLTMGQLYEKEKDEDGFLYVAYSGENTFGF
Another assay addresses His-GABARAP (human, UniProt O95166 1-117). Described as above.
For another assay, the target named is T1, hEPG5^F794A (human, UniProt Q9HCE0 1-2579, F794A).
T1 construct: also called third LIR motif mutant
T1 sequence (Q9HCE0 whole entry F794A): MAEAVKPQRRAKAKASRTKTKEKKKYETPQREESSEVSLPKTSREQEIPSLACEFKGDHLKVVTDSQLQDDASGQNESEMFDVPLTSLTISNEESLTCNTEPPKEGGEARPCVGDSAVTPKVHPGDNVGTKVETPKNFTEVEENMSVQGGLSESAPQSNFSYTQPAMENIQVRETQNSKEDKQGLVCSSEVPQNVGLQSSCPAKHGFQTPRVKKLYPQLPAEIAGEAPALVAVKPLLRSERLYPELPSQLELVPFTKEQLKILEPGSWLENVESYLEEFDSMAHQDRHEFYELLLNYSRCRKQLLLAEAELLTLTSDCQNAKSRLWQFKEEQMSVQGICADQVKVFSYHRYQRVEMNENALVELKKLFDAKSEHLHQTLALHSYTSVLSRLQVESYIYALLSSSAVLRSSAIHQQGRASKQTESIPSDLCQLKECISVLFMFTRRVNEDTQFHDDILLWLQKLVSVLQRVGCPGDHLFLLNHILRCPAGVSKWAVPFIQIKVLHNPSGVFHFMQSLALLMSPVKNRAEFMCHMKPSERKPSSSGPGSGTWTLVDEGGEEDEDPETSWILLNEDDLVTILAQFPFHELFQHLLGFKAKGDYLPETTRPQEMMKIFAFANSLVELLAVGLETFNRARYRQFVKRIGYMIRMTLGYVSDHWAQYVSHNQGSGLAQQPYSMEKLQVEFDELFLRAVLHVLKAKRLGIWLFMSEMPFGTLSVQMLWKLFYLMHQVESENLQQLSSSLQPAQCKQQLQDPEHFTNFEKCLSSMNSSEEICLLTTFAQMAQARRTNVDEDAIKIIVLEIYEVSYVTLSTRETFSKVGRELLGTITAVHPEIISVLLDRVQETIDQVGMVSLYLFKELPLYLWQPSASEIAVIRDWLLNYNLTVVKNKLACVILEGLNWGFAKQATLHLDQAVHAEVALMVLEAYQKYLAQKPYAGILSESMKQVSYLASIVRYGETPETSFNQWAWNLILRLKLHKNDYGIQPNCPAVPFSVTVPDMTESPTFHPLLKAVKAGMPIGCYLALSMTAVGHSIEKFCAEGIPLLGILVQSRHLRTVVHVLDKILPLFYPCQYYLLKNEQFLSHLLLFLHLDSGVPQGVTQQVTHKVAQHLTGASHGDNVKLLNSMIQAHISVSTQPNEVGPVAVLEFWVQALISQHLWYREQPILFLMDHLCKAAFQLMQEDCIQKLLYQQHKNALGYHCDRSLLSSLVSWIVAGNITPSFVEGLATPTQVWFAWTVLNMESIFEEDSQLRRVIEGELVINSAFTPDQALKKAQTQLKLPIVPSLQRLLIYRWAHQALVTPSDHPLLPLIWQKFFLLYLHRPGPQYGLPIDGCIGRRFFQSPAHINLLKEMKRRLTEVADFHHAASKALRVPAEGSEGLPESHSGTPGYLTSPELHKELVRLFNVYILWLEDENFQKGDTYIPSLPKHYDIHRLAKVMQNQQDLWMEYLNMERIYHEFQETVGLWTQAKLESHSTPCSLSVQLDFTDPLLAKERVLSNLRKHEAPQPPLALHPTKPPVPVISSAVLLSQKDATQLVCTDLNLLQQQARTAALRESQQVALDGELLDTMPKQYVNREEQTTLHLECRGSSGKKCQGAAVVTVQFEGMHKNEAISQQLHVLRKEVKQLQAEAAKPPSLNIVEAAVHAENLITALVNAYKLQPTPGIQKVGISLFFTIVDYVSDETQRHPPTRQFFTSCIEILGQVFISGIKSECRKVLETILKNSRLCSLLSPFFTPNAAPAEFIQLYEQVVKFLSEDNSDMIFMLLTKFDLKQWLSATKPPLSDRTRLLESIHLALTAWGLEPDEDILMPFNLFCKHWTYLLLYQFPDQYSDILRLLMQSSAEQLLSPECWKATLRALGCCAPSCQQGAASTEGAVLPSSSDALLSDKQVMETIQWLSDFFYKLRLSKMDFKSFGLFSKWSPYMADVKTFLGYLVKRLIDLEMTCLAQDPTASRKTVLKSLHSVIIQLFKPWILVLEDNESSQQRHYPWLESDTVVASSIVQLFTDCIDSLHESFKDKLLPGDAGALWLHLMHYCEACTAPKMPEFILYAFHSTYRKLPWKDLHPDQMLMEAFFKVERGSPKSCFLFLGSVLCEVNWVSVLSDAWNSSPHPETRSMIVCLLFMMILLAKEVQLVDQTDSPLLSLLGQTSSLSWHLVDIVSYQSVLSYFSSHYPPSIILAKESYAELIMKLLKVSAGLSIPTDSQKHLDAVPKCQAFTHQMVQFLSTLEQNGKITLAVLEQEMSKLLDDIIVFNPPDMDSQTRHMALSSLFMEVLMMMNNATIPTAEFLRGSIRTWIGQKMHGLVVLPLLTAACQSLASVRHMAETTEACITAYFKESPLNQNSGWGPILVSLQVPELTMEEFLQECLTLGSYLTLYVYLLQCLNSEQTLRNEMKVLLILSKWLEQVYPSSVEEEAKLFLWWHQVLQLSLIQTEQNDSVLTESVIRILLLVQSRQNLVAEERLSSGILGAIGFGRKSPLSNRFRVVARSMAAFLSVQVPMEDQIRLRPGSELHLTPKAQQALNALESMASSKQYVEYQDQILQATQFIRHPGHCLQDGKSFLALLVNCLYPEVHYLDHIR
The assay is described as follows: pull-down; GST pull-down: purified GST-LC3A/B/C or GST-GABARAP/L1/L2 bait (200–240 µg) on glutathione resin, purified His-FLAG-hEPG5 or mutant (25–30 µg) as prey; 50 mM Tris pH 8.0, 150 mM NaCl, 5% glycerol, 0.01% Tween20, 0.5 mM DTT, 4 °C; anti-FLAG fluorescence western blot. A general note: In western blotting, separated proteins are transferred to a membrane and probed.

The target of a further assay is T2, hEPG5^Q336R (human, UniProt Q9HCE0 1-2579, Q336R).
T2 construct: human EPG5, full length, with the Vici syndrome missense mutation Q336R (c.1007A>G); also called Gln336Arg; Vici syndrome mutant
T2 sequence (Q9HCE0 whole entry Q336R): as the sequence (Q9HCE0 whole entry F794A) above, with Q336R, A794F counted along it
The description is as above.

Another assay has as its target T3, hEPG5^Δ1–548 (human, UniProt Q9HCE0 549-2579).
T3 construct: also called truncated hEPG5 devoid of the region between the N-terminus and the two LIR motifs
The assay is described as above.

A further assay addresses T4, hEPG5^Δ1770–2579 (human, UniProt Q9HCE0 1-1769).
T4 construct: also called truncated hEPG5 lacking the entire C-terminal region
The assay is described as above.

The next assay has as its target T5, hEPG5^W567A (human, UniProt Q9HCE0 1-2579, W567A).
T5 construct: also called LIR2 mutant
The assay is described as above.

For assay [1], the target named is T6, His-FLAG-hEPG5 (human EPG5, full length, wild type) (human, UniProt Q9HCE0 1-2579).
T6 construct: His-FLAG tag from a modified pFastBacHTB; also called hEPG5^WT; ectopic P-granules autophagy protein 5
T6 sequence (Q9HCE0 whole entry): as the sequence (Q9HCE0 whole entry F794A) above, with A794F counted along it
As to the kind of experiment: pull-down; co-purification: His-FLAG-hEPG5 bound to Ni-NTA resin, GST-GABARAP applied, washed, eluted with imidazole; 50 mM Na phosphate pH 7.4, 150 mM NaCl, 0.01% TWEEN 20, 5% glycerol; complex seen on SDS-PAGE and by negative stain EM 2D class averages.

The next assay has as its target His-GABARAPL1 (human, UniProt Q9H0R8 1-117). The assay is described as follows: ITC; 0.6 mM peptide titrated into 0.06 mM His-LC3/GABARAP protein in 20 steps at 25 °C; 50 mM Tris pH 7.0, 25 mM NaCl; one-site binding model.

T4 sequence (Q9HCE0 1-1769, stated change not applied): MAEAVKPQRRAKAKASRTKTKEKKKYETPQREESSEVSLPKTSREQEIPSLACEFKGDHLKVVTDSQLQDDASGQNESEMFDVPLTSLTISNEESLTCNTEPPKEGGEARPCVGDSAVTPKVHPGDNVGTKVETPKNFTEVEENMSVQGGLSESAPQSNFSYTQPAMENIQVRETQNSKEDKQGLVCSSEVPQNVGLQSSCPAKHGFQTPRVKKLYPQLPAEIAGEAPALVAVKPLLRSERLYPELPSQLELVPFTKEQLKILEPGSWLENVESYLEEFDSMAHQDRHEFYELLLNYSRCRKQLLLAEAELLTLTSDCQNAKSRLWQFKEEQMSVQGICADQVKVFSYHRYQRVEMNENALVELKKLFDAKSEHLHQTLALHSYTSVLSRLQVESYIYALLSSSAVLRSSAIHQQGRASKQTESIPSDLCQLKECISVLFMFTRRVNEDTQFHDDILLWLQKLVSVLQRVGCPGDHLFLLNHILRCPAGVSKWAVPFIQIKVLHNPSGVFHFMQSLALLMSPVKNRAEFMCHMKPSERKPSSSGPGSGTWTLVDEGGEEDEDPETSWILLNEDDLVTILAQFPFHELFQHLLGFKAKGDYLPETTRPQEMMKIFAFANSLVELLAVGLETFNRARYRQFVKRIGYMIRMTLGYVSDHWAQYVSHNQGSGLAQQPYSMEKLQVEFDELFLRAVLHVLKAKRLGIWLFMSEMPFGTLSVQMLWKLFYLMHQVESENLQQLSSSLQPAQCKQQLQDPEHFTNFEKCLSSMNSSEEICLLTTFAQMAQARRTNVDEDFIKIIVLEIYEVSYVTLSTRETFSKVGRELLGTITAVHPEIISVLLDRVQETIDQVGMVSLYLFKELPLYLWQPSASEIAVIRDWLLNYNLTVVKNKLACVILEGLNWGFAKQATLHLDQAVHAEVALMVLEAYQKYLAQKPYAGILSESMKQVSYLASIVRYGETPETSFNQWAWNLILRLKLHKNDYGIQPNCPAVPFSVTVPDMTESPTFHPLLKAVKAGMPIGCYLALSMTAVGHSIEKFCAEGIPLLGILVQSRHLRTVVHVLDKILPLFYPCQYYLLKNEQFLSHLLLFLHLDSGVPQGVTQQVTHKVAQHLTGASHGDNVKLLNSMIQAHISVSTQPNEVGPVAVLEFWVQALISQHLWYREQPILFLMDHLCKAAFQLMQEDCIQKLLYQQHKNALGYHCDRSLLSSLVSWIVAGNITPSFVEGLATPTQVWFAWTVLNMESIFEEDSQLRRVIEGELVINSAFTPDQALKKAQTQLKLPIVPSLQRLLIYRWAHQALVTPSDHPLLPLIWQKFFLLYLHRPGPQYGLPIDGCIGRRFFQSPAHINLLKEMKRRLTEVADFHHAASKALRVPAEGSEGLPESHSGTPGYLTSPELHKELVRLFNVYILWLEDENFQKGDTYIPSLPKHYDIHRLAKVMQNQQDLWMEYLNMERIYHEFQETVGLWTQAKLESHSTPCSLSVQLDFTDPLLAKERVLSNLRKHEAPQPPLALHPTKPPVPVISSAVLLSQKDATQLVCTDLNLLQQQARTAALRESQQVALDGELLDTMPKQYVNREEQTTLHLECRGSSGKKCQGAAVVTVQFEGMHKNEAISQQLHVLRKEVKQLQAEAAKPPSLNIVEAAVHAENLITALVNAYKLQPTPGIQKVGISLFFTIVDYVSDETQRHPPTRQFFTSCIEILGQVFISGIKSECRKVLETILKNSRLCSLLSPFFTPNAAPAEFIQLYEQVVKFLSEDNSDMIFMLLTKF
His-GABARAPL1, sequence (Q9H0R8 whole entry): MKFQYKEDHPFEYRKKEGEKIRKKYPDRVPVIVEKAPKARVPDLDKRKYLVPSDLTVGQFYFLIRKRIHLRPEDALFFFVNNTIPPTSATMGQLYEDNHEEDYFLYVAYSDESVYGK
T5 sequence (Q9HCE0 whole entry W567A): as the sequence (Q9HCE0 whole entry F794A) above, with W567A, A794F counted along it

B1: hEPG5-LIR2 peptide (peptide)
peptide: DEDPETSWILLN
notes: source: synthetic peptide (GenScript)
As to B1, the Kd was determined as 1.75 µM in the assay with His-LC3A, 4.07 µM in the assay with His-LC3B, 0.68 µM with His-GABARAPL2 and 0.16 µM in the assay with His-GABARAP.

B2: GST-GABARAP (natural protein, human, UniProt O95166 1-117, looked up)
chain: MKFVYKEEHPFEKRRSEGEKIRKKYPDRVPVIVEKAPKARIGDLDKKKYLVPSDLTVGQFYFLIRKRIHLRAEDALFFFVNNVIPPTSATMGQLYQEHHEEDFFLYIAYSDESVYGL
B2: the binding result (with hEPG5^F794A; with hEPG5^Q336R; with hEPG5^Δ1–548; with hEPG5^Δ1770–2579; with hEPG5^W567A; in [1]) was “binds” in each case.

B3: hEPG5-LIR1 peptide (peptide)
peptide: GSGTWTLVDEG
notes: human EPG5 residues 546-556, holding the LIR1 motif 550WTLV553; source: synthetic peptide (LifeTein)
Regarding B3, the “fold KD relative to LIR1-GABARAP” value in the assay with His-LC3A worked out at 3 times. Further, the Kd with His-GABARAPL1 was 8.54 µM; with His-GABARAPL2, 11.8 µM; in the assay with His-GABARAP, 7.47 µM.

Source of the values: PMC7935953, “Insights on autophagosome–lysosome tethering from structural and biochemical characterization of human autophagy factor EPG5” (Communications Biology, 2021).
